In the test the target is mutant pp60c-Src tyrosine kinase (SRC 531 mutant, truncated c-Src) (human) (UniProt P12931). The experiment in a line: cell-based or functional assay.

Turning to “peptide Ala-Glu-Glu-Glu-Ile-Tyr-Gly-Glu-Phe-Glu-Ala-Lys-Lys-Lys-Lys”, the K50% (competitive inhibition of enolase phosphorylation) is 5 µM; the Km (kinase reaction, 32P incorporation into peptide, phosphocellulose paper) worked out at 2 µM; the Vmax (kinase reaction, 32P incorporation into peptide, phosphocellulose paper) was found to be 0.9 µM/mg/min.
